Experimental data: article PMC10786891, “Massively parallel profiling of RNA-targeting CRISPR-Cas13d”

T1: EsCas13d, nuclease-dead (Eubacterium siraeum, UniProt B0MS50, R295A;H300A;R849A;H854A)
T1 sequence: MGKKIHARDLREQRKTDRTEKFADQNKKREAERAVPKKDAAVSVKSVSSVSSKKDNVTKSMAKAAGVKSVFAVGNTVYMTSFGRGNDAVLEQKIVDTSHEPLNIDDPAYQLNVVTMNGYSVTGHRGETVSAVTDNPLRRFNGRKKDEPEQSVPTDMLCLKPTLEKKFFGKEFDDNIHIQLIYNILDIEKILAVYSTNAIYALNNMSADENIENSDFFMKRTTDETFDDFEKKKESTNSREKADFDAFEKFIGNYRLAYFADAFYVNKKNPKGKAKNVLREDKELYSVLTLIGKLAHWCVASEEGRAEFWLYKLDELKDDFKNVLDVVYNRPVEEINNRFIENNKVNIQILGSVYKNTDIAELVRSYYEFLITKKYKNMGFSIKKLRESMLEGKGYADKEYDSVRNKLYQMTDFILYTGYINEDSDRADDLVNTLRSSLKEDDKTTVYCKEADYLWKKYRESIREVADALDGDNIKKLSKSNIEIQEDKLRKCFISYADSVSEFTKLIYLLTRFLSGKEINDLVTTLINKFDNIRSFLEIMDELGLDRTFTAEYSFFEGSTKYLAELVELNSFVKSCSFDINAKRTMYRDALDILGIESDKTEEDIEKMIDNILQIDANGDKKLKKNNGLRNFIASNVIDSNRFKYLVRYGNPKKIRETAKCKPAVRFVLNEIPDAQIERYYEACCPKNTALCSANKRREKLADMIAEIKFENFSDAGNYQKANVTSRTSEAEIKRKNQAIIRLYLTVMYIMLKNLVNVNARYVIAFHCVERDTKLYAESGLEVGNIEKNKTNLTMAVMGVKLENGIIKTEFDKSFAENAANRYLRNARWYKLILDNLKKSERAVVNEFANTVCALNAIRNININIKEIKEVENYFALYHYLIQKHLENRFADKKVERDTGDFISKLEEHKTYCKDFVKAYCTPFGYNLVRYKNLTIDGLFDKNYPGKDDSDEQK


Biological target: T1, EsCas13d, nuclease-dead
Test: crRNA (strand 1, pre-loaded); Mg2+; 40 mM Tris-HCl pH 7.5, 150 mM NaCl, 6 mM MgCl2, 1 mM DTT, 0.1% Tween-20, 0.2 mg/ml BSA; 25 C; 10 min per concentration, then washed
Settings: tags: His6-TwinStrep-SUMO cleaved; N-terminal SNAP kept (SNAP-Surface 488); label: 3' end held by stalled T7 RNA polymerase

Binder	Kd
target 3 G4C,A18G (mixed) RNA 1: CACCCGUGCAAAAUUGCAGGGGUCUAAAACGACCUGAAUAUUUCAGAUCAAA RNA 2: GGGAAUGGAUCCACAUCUACGAAUUCGUUUUUGGUCUGAAAUAUUCACGUCUGCAGAUCGGAAGAGCACACGU	34.4 ± 3.95 nM
target 3 U2A,C6G (mixed) RNA 1: CACCCGUGCAAAAUUGCAGGGGUCUAAAACGACCUGAAUAUUUCAGAUCAAA RNA 2: GGGAAUGGAUCCACAUCUACGAAUUCGUUUUUGAUCUGAAAUAUUGAGGACUGCAGAUCGGAAGAGCACACGU	37 ± 5 nM
target 3 insA 3' of 7,insC 3' of 5 (mixed) RNA 1: CACCCGUGCAAAAUUGCAGGGGUCUAAAACGACCUGAAUAUUUCAGAUCAAA RNA 2: GGGAAUGGAUCCACAUCUACGAAUUCGUUUUUGAUCUGAAAUAUUACACGGUCUGCAGAUCGGAAGAGCACACGU	28.2 ± 1.85 nM
target 3 A11C,A18C (mixed) RNA 1: CACCCGUGCAAAAUUGCAGGGGUCUAAAACGACCUGAAUAUUUCAGAUCAAA RNA 2: GGGAAUGGAUCCACAUCUACGAAUUCGUUUUUGCUCUGAACUAUUCAGGUCUGCAGAUCGGAAGAGCACACGU	39 ± 4 nM
target 3 insC 3' of 8,insU 3' of 5 (mixed) RNA 1: CACCCGUGCAAAAUUGCAGGGGUCUAAAACGACCUGAAUAUUUCAGAUCAAA RNA 2: GGGAAUGGAUCCACAUCUACGAAUUCGUUUUUGAUCUGAAAUAUCUCAUGGUCUGCAGAUCGGAAGAGCACACGU	79.5 ± 15 nM
target 3 insA 3' of 6,insA 3' of 2 (mixed) RNA 1: CACCCGUGCAAAAUUGCAGGGGUCUAAAACGACCUGAAUAUUUCAGAUCAAA RNA 2: GGGAAUGGAUCCACAUCUACGAAUUCGUUUUUGAUCUGAAAUAUUCAAGGUACUGCAGAUCGGAAGAGCACACGU	4.2 ± 0.55 nM
target 3 U8C,U22C (mixed) RNA 1: CACCCGUGCAAAAUUGCAGGGGUCUAAAACGACCUGAAUAUUUCAGAUCAAA RNA 2: GGGAAUGGAUCCACAUCUACGAAUUCGUUCUUGAUCUGAAAUACUCAGGUCUGCAGAUCGGAAGAGCACACGU	46 ± 8.5 nM
target 3 insG 3' of 9,insG 3' of 2 (mixed) RNA 1: CACCCGUGCAAAAUUGCAGGGGUCUAAAACGACCUGAAUAUUUCAGAUCAAA RNA 2: GGGAAUGGAUCCACAUCUACGAAUUCGUUUUUGAUCUGAAAUAGUUCAGGUGCUGCAGAUCGGAAGAGCACACGU	63.5 ± 14.5 nM
target 3 insG 3' of 6,insA 3' of 1 (mixed) RNA 1: CACCCGUGCAAAAUUGCAGGGGUCUAAAACGACCUGAAUAUUUCAGAUCAAA RNA 2: GGGAAUGGAUCCACAUCUACGAAUUCGUUUUUGAUCUGAAAUAUUCGAGGUCAUGCAGAUCGGAAGAGCACACGU	76 ± 34 nM
target 3 insU 3' of 16,insC 3' of 4 (mixed) RNA 1: CACCCGUGCAAAAUUGCAGGGGUCUAAAACGACCUGAAUAUUUCAGAUCAAA RNA 2: GGGAAUGGAUCCACAUCUACGAAUUCGUUUUUGAUCUUGAAAUAUUCAGCGUCUGCAGAUCGGAAGAGCACACGU	84.5 ± 27 nM
target 3 insU 3' of 5,insU 3' of 5 (mixed) RNA 1: CACCCGUGCAAAAUUGCAGGGGUCUAAAACGACCUGAAUAUUUCAGAUCAAA RNA 2: GGGAAUGGAUCCACAUCUACGAAUUCGUUUUUGAUCUGAAAUAUUCAUUGGUCUGCAGAUCGGAAGAGCACACGU	3.87 ± 0.32 nM
target 3 U2G,G3A (mixed) RNA 1: CACCCGUGCAAAAUUGCAGGGGUCUAAAACGACCUGAAUAUUUCAGAUCAAA RNA 2: GGGAAUGGAUCCACAUCUACGAAUUCGUUUUUGAUCUGAAAUAUUCAGAGCUGCAGAUCGGAAGAGCACACGU	44 ± 6.5 nM
target 1 C2G,C7G (mixed) RNA 1: CACCCGUGCAAAAAUGCAGGGGUCUAAAACUGAGCGGAUAACCUCUCUAUGG RNA 2: GGGAAUGGAUCCACAUCUACGAAUUCGUACCAUAGAGAGGUUAUGCGCUGACCGAGAUCGGAAGAGCACACGU	8.9 ± 0.4 nM
